{"source": "patent US5141947A", "about": "“Fibrinolysis-enhancing agents” (Mitsubishi Kasei Corporation, priority 1984, dated 1992)", "molecules": {"B1": {"name": "t-PA: single or double chain tissue plasminogen activator (t-PA) (protein, UniProt P00750 36-562, looked up)", "Tissue-type plasminogen …": "SYQVICRDEKTQMIYQQHQSWLRPVLRSNRVEYCWCNSGRAQCHSVPVKSCSEPRCFNGGTCQQALYFSDFVCQCPEGFAGKCCEIDTRATCYEDQGISYRGTWSTAESGAECTNWNSSALAQKPYSGRRPDAIRLGLGNHNYCRNPDRDSKPWCYVFKAGKYSSEFCSTPACSEGNSDCYFGNGSAYRGTHSLTESGASCLPWNSMILIGKVYTAQNPSAQALGLGKHNYCRNPDGDAKPWCHVLKNRRLTWEYCDVPSCSTCGLRQYSQPQFRIKGGLFADIASHPWQAAIFAKHRRSPGERFLCGGILISSCWILSAAHCFQERFPPHHLTVILGRTYRVVPGEEEQKFEVEKYIVHKEFDDDTYDNDIALLQLKSDSSRCAQESSVVRTVCLPPADLQLPDWTECELSGYGKHEALSPFYSERLKEAHVRLYPSSRCTSQHLLNRTVTDNMLCAGDTRSGGPQANLHDACQGDSGGPLVCLNDGRMTLVGIISWGLGCGQKDVPGVYTKVTNYLDWIRDNMRP"}}, "test_system": "thrombus in carotid artery of rabbit", "experiment": "in vivo thrombolysis by t-PA, rabbit carotid artery thrombus (Example 4)", "conditions": "for Thrombus Protein: 2 h infusion, femoral vein, n=4, saline control 1.97 ± 0.38", "procedure": "The carotid artery of a rabbit was exposed from the surrounding tissue under anesthesia by pentobarbital. The exposed artery was surrounded with absorbent cotton soaked with glacial acetic acid and allowed to stay for 3 hours to form thrombus by the damage done to the endorthelium. The thus formed thrombus was tested for dissolution. Immediately after removing out the cotton, physiological saline in which the substance to be tested had been dissolved was injected through the femoral vein. The infusion was continued over 2 hours. After the infusion, the arterial segment wherein the thrombus had been formed was cut out and the thrombus mass was removed out under a microscope. The thrombus was dissolved in alkali and the protein was quantitatively measured by phenol method.", "data": [{"molecule": "B1", "values": [{"measurement": "thrombolytic effect", "setting": "t-PA 0.48 mg/kg alone", "value": "no thrombolytic effect"}, {"measurement": "Thrombus Protein", "setting": "t-PA 0.48 mg/kg alone", "value": "2.45 ± 0.81", "unit": "mg"}, {"measurement": "Thrombus Protein", "setting": "t-PA 0.96 mg/kg alone", "value": "0.40 ± 0.16", "unit": "mg"}]}]}
